Residue numbers refer to the chain shown, from its start. Names may count otherwise.

A word on the Kd: it is the constant that tells how readily two partners part at equilibrium.

The chains are these.
T1: EsCas13d, nuclease-dead (Eubacterium siraeum, UniProt B0MS50, R295A;H300A;R849A;H854A)
T1 sequence: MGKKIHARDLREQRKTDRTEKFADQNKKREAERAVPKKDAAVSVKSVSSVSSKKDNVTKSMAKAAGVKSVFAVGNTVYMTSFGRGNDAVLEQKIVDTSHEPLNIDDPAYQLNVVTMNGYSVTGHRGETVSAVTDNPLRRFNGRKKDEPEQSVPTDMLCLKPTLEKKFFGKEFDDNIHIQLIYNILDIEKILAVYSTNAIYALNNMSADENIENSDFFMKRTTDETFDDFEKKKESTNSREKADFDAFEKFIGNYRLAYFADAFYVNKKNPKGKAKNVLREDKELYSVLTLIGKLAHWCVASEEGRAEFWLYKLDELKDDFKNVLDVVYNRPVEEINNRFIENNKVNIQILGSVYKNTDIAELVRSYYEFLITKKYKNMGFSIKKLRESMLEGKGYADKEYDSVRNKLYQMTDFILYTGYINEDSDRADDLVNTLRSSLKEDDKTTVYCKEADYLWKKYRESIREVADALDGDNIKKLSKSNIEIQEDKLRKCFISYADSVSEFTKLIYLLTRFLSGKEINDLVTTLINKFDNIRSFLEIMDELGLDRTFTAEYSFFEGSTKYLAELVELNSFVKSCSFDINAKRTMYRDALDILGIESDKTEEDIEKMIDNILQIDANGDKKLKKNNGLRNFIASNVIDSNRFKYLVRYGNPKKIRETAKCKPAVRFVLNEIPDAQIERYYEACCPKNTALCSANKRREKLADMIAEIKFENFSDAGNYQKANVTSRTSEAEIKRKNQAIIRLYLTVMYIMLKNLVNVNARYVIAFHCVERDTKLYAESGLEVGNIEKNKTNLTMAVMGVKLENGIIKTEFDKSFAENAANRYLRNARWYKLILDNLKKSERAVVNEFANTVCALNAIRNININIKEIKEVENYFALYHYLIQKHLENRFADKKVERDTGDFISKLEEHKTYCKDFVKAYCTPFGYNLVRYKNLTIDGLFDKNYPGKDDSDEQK

B1: target 2 MT 5'PFS GGA 3'PFS AGC (mixed)
RNA 1: CACCCGUGCAAAAUUGCAGGGGUCUAAAACCUUCUCCAAAUUGUUUCAUCCU
RNA 2: GGGAAUGGAUCCACAUCUACGAAUUCGGAAGGAUGAAACAAUUUGGAGAAGAGCAGAUCGGAAGAGCACACGU
B2: target 2 MT 5'PFS GGU 3'PFS AGG (mixed)
RNA 1: B1 RNA 1
RNA 2: B1 RNA 2 with A29U, C54G
B3: target 2 MT 5'PFS AAC 3'PFS CGG (mixed)
RNA 1: B1 RNA 1
RNA 2: B1 RNA 2 with G27A, G28A, A29C, A52C, C54G
B4: target 2 MT 5'PFS UUG 3'PFS AAU (mixed)
RNA 1: B1 RNA 1
RNA 2: B1 RNA 2 with G27U, G28U, A29G, G53A, C54U
B5: target 2 MT 5'PFS GUU 3'PFS UGU (mixed)
RNA 1: B1 RNA 1
RNA 2: B1 RNA 2 with G28U, A29U, A52U, C54U
B6: target 2 MT 5'PFS UGA 3'PFS UUA (mixed)
RNA 1: B1 RNA 1
RNA 2: B1 RNA 2 with G27U, A52U, G53U, C54A
B7: target 2 MT 5'PFS GUA 3'PFS UAA (mixed)
RNA 1: B1 RNA 1
RNA 2: B1 RNA 2 with G28U, A52U, G53A, C54A
B8: target 2 MT 5'PFS UGA 3'PFS UUC (mixed)
RNA 1: B1 RNA 1
RNA 2: B1 RNA 2 with G27U, A52U, G53U
B9: target 2 MT 5'PFS AAA 3'PFS AGG (mixed)
RNA 1: B1 RNA 1
RNA 2: B1 RNA 2 with G27A, G28A, C54G
B10: target 2 MT 5'PFS UUU 3'PFS CAU (mixed)
RNA 1: B1 RNA 1
RNA 2: B1 RNA 2 with G27U, G28U, A29U, A52C, G53A, C54U
B11: target 2 MT 5'PFS GUA 3'PFS UAG (mixed)
RNA 1: B1 RNA 1
RNA 2: B1 RNA 2 with G28U, A52U, G53A, C54G
B12: target 2 MT 5'PFS UUG 3'PFS AAG (mixed)
RNA 1: B1 RNA 1
RNA 2: B1 RNA 2 with G27U, G28U, A29G, G53A, C54G
B13: target 2 MT 5'PFS UCU 3'PFS AGC (mixed)
RNA 1: B1 RNA 1
RNA 2: B1 RNA 2 with G27U, G28C, A29U
B14: target 2 MT 5'PFS UAC 3'PFS UUG (mixed)
RNA 1: B1 RNA 1
RNA 2: B1 RNA 2 with G27U, G28A, A29C, A52U, G53U, C54G
B15: target 2 MT 5'PFS GGC 3'PFS AAU (mixed)
RNA 1: B1 RNA 1
RNA 2: B1 RNA 2 with A29C, G53A, C54U
B16: target 2 MT 5'PFS UUG 3'PFS AAC (mixed)
RNA 1: B1 RNA 1
RNA 2: B1 RNA 2 with G27U, G28U, A29G, G53A
B17: target 2 MT 5'PFS AAA 3'PFS AGC (mixed)
RNA 1: B1 RNA 1
RNA 2: B1 RNA 2 with G27A, G28A
B18: target 2 MT 5'PFS UUG 3'PFS AAA (mixed)
RNA 1: B1 RNA 1
RNA 2: B1 RNA 2 with G27U, G28U, A29G, G53A, C54A
B19: target 2 MT 5'PFS UUU 3'PFS CAC (mixed)
RNA 1: B1 RNA 1
RNA 2: B1 RNA 2 with G27U, G28U, A29U, A52C, G53A
B20: target 2 MT 5'PFS GGU 3'PFS AGC (mixed)
RNA 1: B1 RNA 1
RNA 2: B1 RNA 2 with A29U
B21: target 2 MT 5'PFS UUU 3'PFS CAA (mixed)
RNA 1: B1 RNA 1
RNA 2: B1 RNA 2 with G27U, G28U, A29U, A52C, G53A, C54A
B22: target 2 MT 5'PFS AAC 3'PFS CGC (mixed)
RNA 1: B1 RNA 1
RNA 2: B1 RNA 2 with G27A, G28A, A29C, A52C
B23: target 2 MT 5'PFS AGG 3'PFS CGA (mixed)
RNA 1: B1 RNA 1
RNA 2: B1 RNA 2 with G27A, A29G, A52C, C54A
B24: target 2 MT 5'PFS GUA 3'PFS UAC (mixed)
RNA 1: B1 RNA 1
RNA 2: B1 RNA 2 with G28U, A52U, G53A
B25: target 2 MT 5'PFS UUU 3'PFS CAG (mixed)
RNA 1: B1 RNA 1
RNA 2: B1 RNA 2 with G27U, G28U, A29U, A52C, G53A, C54G
B26: target 2 MT 5'PFS GAU 3'PFS UUU (mixed)
RNA 1: B1 RNA 1
RNA 2: B1 RNA 2 with G28A, A29U, A52U, G53U, C54U
B27: target 2 MT 5'PFS AGG 3'PFS AUU (mixed)
RNA 1: B1 RNA 1
RNA 2: B1 RNA 2 with G27A, A29G, G53U, C54U
B28: target 2 MT 5'PFS GGU 3'PFS AGA (mixed)
RNA 1: B1 RNA 1
RNA 2: B1 RNA 2 with A29U, C54A
B29: target 2 MT 5'PFS UAC 3'PFS UUA (mixed)
RNA 1: B1 RNA 1
RNA 2: B1 RNA 2 with G27U, G28A, A29C, A52U, G53U, C54A
B30: target 2 MT 5'PFS UAC 3'PFS UUU (mixed)
RNA 1: B1 RNA 1
RNA 2: B1 RNA 2 with G27U, G28A, A29C, A52U, G53U, C54U
B31: target 2 MT 5'PFS UUG 3'PFS UUA (mixed)
RNA 1: B1 RNA 1
RNA 2: B1 RNA 2 with G27U, G28U, A29G, A52U, G53U, C54A
B32: target 1 A1C,A14G (mixed)
RNA 1: CACCCGUGCAAAAAUGCAGGGGUCUAAAACUGAGCGGAUAACCUCUCUAUGG
RNA 2: GGGAAUGGAUCCACAUCUACGAAUUCGUACCAUAGAGGGGUUAUCCGCUCCCCGAGAUCGGAAGAGCACACGU
B33: target 1 C4G,C7U (mixed)
RNA 1: B32 RNA 1
RNA 2: B32 RNA 2 with G38A, C45U, C48G, C51A
B34: target 1 A1G,A14G (mixed)
RNA 1: B32 RNA 1
RNA 2: B32 RNA 2 with C51G
B35: target 1 insA 3' of 8,insU 3' of 2 (mixed)
RNA 1: B32 RNA 1
RNA 2: GGGAAUGGAUCCACAUCUACGAAUUCGUACCAUAGAGAGGUUAUACCGCUCUACCGAGAUCGGAAGAGCACACGU

The data set concerns the target T1, EsCas13d, nuclease-dead. The data set is described as follows: crRNA (strand 1, pre-loaded); Mg2+; 40 mM Tris-HCl pH 7.5, 150 mM NaCl, 6 mM MgCl2, 1 mM DTT, 0.1% Tween-20, 0.2 mg/ml BSA; 25 C; 10 min per concentration, then washed. As to conditions: tags: His6-TwinStrep-SUMO cleaved; N-terminal SNAP kept (SNAP-Surface 488); label: 3' end held by stalled T7 RNA polymerase.
In the case of B1, the Kd was 7.3 ± 0.7 nM.

The molecule B2 showed a Kd of 14.4 ± 1.3 nM.

B3: binding was characterised by a dissociation constant (Kd) of 3.2 ± 0.5 nM.

For B4, the Kd was determined as 9.8 ± 1.2 nM.

B5 registered a Kd of 21 ± 2.3 nM.

For the molecule B6, binding was characterised by a dissociation constant (Kd) of 10.7 ± 1.9 nM.

With B7, the affinity, expressed as Kd, was 5.5 ± 0.6 nM.

Regarding B8, the Kd was determined as 26 ± 7 nM.

Turning to B9, the Kd is 4.7 ± 0.9 nM. Compared with the last molecule, the Kd is about 5.5-fold lower.

B10: the Kd turned out to be 6.8 ± 0.8 nM.

With B11, the Kd was found to be 11 ± 1.8 nM.

The molecule B12 yielded a Kd of 9.6 ± 0.7 nM.

In turn, B13 registered an equilibrium dissociation constant (Kd) of 11 ± 2.3 nM.

The molecule B14 returned a Kd of 8 ± 1.4 nM.

B15 returned a Kd of 8.5 ± 0.9 nM.

B16 showed a Kd of 9.8 ± 1.2 nM.

B17 displayed a Kd of 4.2 ± 1.5 nM.

The molecule B18 showed a Kd of 6.7 ± 0.6 nM.

For B19, the Kd was found to be 7.5 ± 1 nM.

On to B20, for which the Kd turned out to be 13.8 ± 1.9 nM.

On to B21, for which binding was put at a Kd of 7.6 ± 1 nM.

The molecule B22 gave a Kd of 4.7 ± 1.1 nM.

In the case of B23, the dissociation constant (Kd) came to 4.5 ± 0.5 nM.

Consider B24, for which the Kd came out at 7.7 ± 0.7 nM.

B25 displayed an equilibrium dissociation constant (Kd) of 5 ± 0.4 nM.

For the molecule B26, the Kd is 47 ± 13 nM.

The molecule B27 returned a Kd of 4.8 ± 0.8 nM.

Molecule B28 came in with a Kd of 10.6 ± 1.5 nM.

B29: binding was put at a Kd of 11.1 ± 2.3 nM.

B30 yielded a Kd of 11.9 ± 1.9 nM.

Regarding B31, the Kd is 29 ± 7 nM.

For B32, binding was put at a Kd of 25 ± 4 nM.

For the molecule B33, the Kd amounted to 3.78 ± 0.31 nM.

The molecule B34 displayed a Kd of 14.3 ± 0.8 nM. This Kd lies about 3.8-fold higher than the previous one.

The molecule B35 registered a Kd of 22.5 ± 1.4 nM.
